The source of these data is patent US20110076248A1 (MYRIAD GENETICS, published 2011).

Test [1] has as its target T1, activation domain-Tsg101 construct (full-length Tsg101 in GADpN2: SV40NLS-GAL4 (768-881)-Tsg101) (human, UniProt P04386 768-881; Q99816 1-390).
T1 sequence: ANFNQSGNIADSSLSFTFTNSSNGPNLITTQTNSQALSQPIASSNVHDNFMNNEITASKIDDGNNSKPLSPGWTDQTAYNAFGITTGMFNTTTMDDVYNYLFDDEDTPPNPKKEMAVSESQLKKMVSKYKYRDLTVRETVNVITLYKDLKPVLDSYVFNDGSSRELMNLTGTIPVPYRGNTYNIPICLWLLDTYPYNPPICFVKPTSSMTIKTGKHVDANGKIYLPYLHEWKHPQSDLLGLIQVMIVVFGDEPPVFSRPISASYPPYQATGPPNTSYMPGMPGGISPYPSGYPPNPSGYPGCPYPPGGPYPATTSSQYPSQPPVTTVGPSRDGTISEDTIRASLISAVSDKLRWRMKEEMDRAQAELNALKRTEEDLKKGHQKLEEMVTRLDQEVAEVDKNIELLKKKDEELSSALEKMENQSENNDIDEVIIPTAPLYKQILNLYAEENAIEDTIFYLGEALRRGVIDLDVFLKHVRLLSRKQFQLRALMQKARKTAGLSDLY
Briefly: cell-based or functional assay.

For test [2], the target named is T1, activation domain-Tsg101 construct …. Briefly: yeast two-hybrid, filter lift β-Gal assay.

B1: binding domain-wild type p6gag construct (HIV1 p6 peptide of the HIV1.NL43 strain GAG protein in pGBT.Q) (other)
chain: LQSRPEPTAPPEESFRFGEETTTPSQKQEPIDKELYPLASLRSLFGSDPSSQ
In the case of B1, the “β-galactosidase activity in the two-hybrid liquid culture assay” value in test [1] was greater than 300 fold over background.

B2: binding domain-mutant p6gag construct p6(A9R) (other)
chain: LQSRPEPTRPPEESFRFGEETTTPSQKQEPIDKELYPLASLRSLFGSDPSSQ
notes: The mutation number counts on p6gag
With B2, the binding result in test [2] was “no binding”.

B3: binding domain-mutant p6gag construct p6(P7L) (other)
chain: LQSRPELTAPPEESFRFGEETTTPSQKQEPIDKELYPLASLRSLFGSDPSSQ
notes: as for B2
On to B3, for which the binding result in test [2] is on record as “no binding”.

B4: binding domain-mutant p6gag construct p6(P10L) (other)
chain: LQSRPEPTALPEESFRFGEETTTPSQKQEPIDKELYPLASLRSLFGSDPSSQ
notes: as for B2
B4: the binding result in test [2] is “no binding”.
